Data on three molecules can be found in patent US20050048512A1 (published 2005).

Values joined by “and” are separate entries in the source; they are usually repeats but may differ in a detail not shown here. Identical values can stand only once.

The target of experiment [1] is T1, CD20 on Raji or Daudi cells (UniProt P11836 1-297, limits assumed).
T1 construct: whole, on cells
T1 sequence (looked up): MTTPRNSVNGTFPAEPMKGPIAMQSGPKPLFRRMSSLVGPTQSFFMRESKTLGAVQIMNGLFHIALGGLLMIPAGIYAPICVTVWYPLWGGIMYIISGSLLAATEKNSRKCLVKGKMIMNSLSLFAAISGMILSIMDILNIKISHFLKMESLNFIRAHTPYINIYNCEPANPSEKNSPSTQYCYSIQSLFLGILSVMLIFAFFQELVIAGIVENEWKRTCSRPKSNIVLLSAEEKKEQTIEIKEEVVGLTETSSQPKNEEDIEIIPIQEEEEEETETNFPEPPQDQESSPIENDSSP
In words: phage clone on Raji or Daudi cells with or without 1 mg/mL Rituxan.

The target in experiment [2] is T2, CD28 (UniProt P10747 19-152, limits assumed).
T2 construct: Purified CD28 immobilized by NHS/EDC coupling (Biacore) or hydrophobic adsorption (ELISA); also called target protein CD28
Briefly: ELISA, 10 ng CD28 per well, serial dilutions of protein, anti-HA-HRP detection.

Experiment [3] deals with T2, CD28. In words: Biacore, CD28 on CM5 chip, 0.5 and 5 uM protein in flow.
The next experiment has as its target CD28 on monkey PBMC (monkey (cynomolgus), UniProt Q0PDN3 19-220). Briefly: cell-based or functional assay.
The next experiment concerns the target CD28 on human PBMC (human, UniProt P10747 19-220). Briefly: cell-based or functional assay.

B1: CD20 binding sequence 8 (designed binder)
chain: CLPERFQCAVPGYCIPLPGVCDGVNDCQEDSDEPNCRAPGLR
Turning to B1, in experiment [1], the binding result is listed as “binds”.

B2: CD20 binding sequence 9 (designed binder)
chain: CRRNEFRCKSGHCVPQPLVCDGVRDCEDNSDEPSCGRPGPGATSAPAA
Consider B2, for which the binding result in experiment [1] was “binds”.

B3: CD28-A10 (designed binder)
chain: CGPGRFQCESGQCVPATWVCDGDDDCADGSDEKSCATTAPTCESNQFQCGSGQCLPGTWRCDGVNDCADSSDETGCGRPGPGATSAPAACGPGRFQCNNGNCVPQTLGCDGDNDCGDSSDEANCSAPASEPPGSL
notes: LDL receptor A-domain trimer; also called CD28 10; CD28 trimer clone 10
The term Kd denotes a measure of binding affinity in units of concentration. As for B3, the “ELISA (column head; quantity not named)” value with CD28 [2] came to 1.7e-10. In the experiment with CD28 [3], this molecule came in with a dissociation constant Kd of 29 nM. Moreover, the “IC50, PBMC assay on monkey cells (3H thymidine incorporation)” value with CD28 on monkey PBMC was determined as 7 nM. For the same molecule, the “IC50, PBMC assay on human cells (3H thymidine incorporation)” value with CD28 on human PBMC is 3 nM and 40 ng/ml.
